Laboratory results published in US20190177426A1 (BRIGHAM AND WOMEN S HOSPITAL, published 2019).

How the values were obtained:
human fibulin-3 [1] = target: T1, human fibulin-3 (human, UniProt Q12805 18-493, limits assumed); experiment: method not stated there (summary of the tests)
T1 construct: Purified human fibulin-3 in Western blot, dot blot and BIACORE (there pretreated with 10 mM DTT to dissociate multimers); The same entry is used for fibulin-3 secreted by transfected CNS1 cells and for native fibulin-3 in human tissue sections; also called Fib3; EFEMP1 gene product
T1 sequence (looked up): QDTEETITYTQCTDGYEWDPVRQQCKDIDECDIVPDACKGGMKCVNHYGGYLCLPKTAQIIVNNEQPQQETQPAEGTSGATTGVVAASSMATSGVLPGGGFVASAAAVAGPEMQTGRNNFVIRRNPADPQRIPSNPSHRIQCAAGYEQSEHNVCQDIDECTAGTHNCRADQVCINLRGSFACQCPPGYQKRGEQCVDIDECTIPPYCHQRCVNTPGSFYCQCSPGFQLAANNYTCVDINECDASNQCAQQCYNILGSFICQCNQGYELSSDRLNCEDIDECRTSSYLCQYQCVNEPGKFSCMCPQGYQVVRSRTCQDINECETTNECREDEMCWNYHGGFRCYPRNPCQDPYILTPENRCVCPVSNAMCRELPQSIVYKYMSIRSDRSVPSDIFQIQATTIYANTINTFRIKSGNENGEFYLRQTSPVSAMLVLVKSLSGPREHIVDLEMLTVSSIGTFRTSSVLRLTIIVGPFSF
Protocol: (§1) Experiments were performed in duplicate and fit to a 1:1 binding interaction model.

human fibulin-3 [2] = target: T1, human fibulin-3; experiment: SPR (BIACORE), antibody immobilized on the chip, purified human fibulin-3 pretreated with 10 mM DTT, duplicate, 1:1 model
Protocol: as §1

human fibulin-3 [3] = target: T1, human fibulin-3; experiment: BIACORE, antibody immobilised on the chip, purified human fibulin-3 pretreated with 10 mM DTT as analyte (200-600 nM), 1:1 model; first of two runs (upper panel)
Protocol: as §1

human fibulin-3 [4] = target: T1, human fibulin-3; experiment: BIACORE, antibody immobilised on the chip, purified human fibulin-3 pretreated with 10 mM DTT as analyte (200-600 nM), 1:1 model; second of two runs (lower panel)
Protocol: as §1

B1: mAb428.2.3C11.H11.G3 (antibody, IgG1, V domains shown)
VH: QIQLVQSGPELKKPGETVKISCKASGYSFTTYGMSWVKQAPGKGLKWMGWINTYSGVPTYADDFKGRFAFFLETSASTAYLQINNLKNEDTATYFCARWVDYWGQGTTLTVSS
VL: DIKMTQSPSSMYASLGERVTITCKASQDIKSYLSWHQQKPWKSPKTLIYYATSLADGVPSRFSGSGSGQDYSLTISSLESDDTATYYCLQHGKSPYTFGGGTKLEIK
notes: also called mAb428.3C11; mAb428.3C11.H11.G3
Kd (human fibulin-3 [1]): 5 nM
Kd (human fibulin-3 [2]): ~4.5 nM
Kd (human fibulin-3 [3]): 6.97 nM
Kd (human fibulin-3 [4]): 2.03 nM
